Assay results reported in paper PMC4433907, “Heterologous expression and characterization of laccase 2 from Coprinopsis cinerea capable of decolourizing different recalcitrant dyes” (Biotechnology, Biotechnological Equipment, 2014).

Columns and labels:
Assay in all cases: purified protein
purified protein [1] = substrate: COc1cccc(OC)c1O; type: biochemical, Coprinopsis cinerea; details: McIlvaine buffer, 30 °C, 10 min, apparent Km
purified protein [2] = substrate: CCn1c(=NN=c2sc3cc(S(=O)(=O)O)ccc3n2CC)sc2cc(S(=O)(=O)O)ccc21; type: biochemical, Coprinopsis cinerea; details: McIlvaine buffer (pH 2.6 in the standard assay), 30 °C, 10 min, apparent Km
purified protein [3] = substrate: COc1ccccc1O; details: McIlvaine buffer, 30 °C, 10 min, apparent Km

B1: CcLcc2 (laccase 2) (Coprinopsis cinerea okayama7#130) (protein)
chain: AIGPSTNLVVANKVIAPDGFSRSAVLAGATQPTVQFPGPVIQGNKNSFFAINVIDALTDPTMLRTTSIHWHGMFQRGTAWADGPAGVTQCPISPGHSFLYKFQALNQAGTFWYHSHHESQYCDGLRGAMVVYDPVDPHRNLYDIDNEATIITLADWYHVPAPSAGLVPTPDSTLINGKGRYAGGPTVPLAVISVTRNRRYRFRLVSLSCDPNYVFSIDGHTMTVIEVDGVNVQPLVVDSIQIFAGQRYSFVLNANRPVGNYWVRANPNIGTTGFVGGVNSAILRYVGASNTDPTTTQTPFSNPLLETNLHPLTNPAAPGLPTPGGVDVAINLNTVFDFSSLTFSVNGATFHQPPVPVLLQIMSGAQTAQQLLPSGSVYVLPRNKVIELSMPGGSTGSPHPFHLHGHEFAVVRSAGSSTYNFANPVRRDVVSAGVAGDNVTIRFRTDNPGPWILHCHIDWHLVLGLAVVFAEDAPTVATMDPPPAWDQLCPIYDALPPNT
Question: How did the Km (purified protein [1]) turn out when B1 was run?
Answer: 1020 µM

Question: And the Vmax (purified protein [1])?
Answer: 57.5 µmol/min/mg

Question: What about the kcat (purified protein [1]) of the same protein?
Answer: 73 s⁻¹

Question: What about the kcat/Km (purified protein [1]) of the same protein?
Answer: 71600 M⁻¹ s⁻¹

Question: And the Km (purified protein [2])?
Answer: 930 µM

Question: What about the Vmax (purified protein [2]) of the same protein?
Answer: 667 µmol/min/mg

Question: And the kcat (purified protein [2])?
Answer: 847 s⁻¹

Question: What about the kcat/Km (purified protein [2]) of the same protein?
Answer: 911000 M⁻¹ s⁻¹

Question: What about the Km (purified protein [3]) of the same protein?
Answer: 28070 µM

Question: And the Vmax (purified protein [3])?
Answer: 2.46 µmol/min/mg

Question: What about the kcat (purified protein [3]) of the same protein?
Answer: 3.12 s⁻¹

Question: And the kcat/Km (purified protein [3])?
Answer: 111 M⁻¹ s⁻¹
